For one substance, Kd results are on record in patent US5534418.

This data set has as its system T3 receptor (thyroid hormone receptor, GC2 pituitary cell nuclear extract) (Rattus norvegicus). As to the kind of experiment: pulldown. The settings on record: equilibrium binding constant printed as 1.4x10^-9 M, ABCD assay, poly(dI-dC), 22 C, data not shown.

The substance G209-146 rat GH enhancer probe displayed a Kd of 1.4 nM.

One may read the Kd as the constant that tells how readily two partners part at equilibrium.
